Reference: the supplement of paper PMC10201428
± gives the standard deviation of the averaged measurements.

What was measured:
[1] = system: VchCAST RNA-guided transposition machinery (E. coli BL21(DE3) host, lacZ target); assay: relative integration efficiency (T-RL orientation) vs wild-type transposon end (log2 (normalized fold change)); transposon end mutated: right end (5 bp flank + 75 bp right end); higher = more efficient transposition
Summary of the method: (§1)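 A T7-driven effector plasmid encoding a CRISPR array, tniQ-cas8-cas7-cas6 and tnsA-tnsB-tnsC was co-transformed into E. coli BL21(DE3) together with a pUC57 mini-transposon donor holding barcoded pools of 1549 left-end or 1849 right-end variants. Transformants were plated with 0.1 mM IPTG at 37°C for 18 h. Illumina sequencing of PCR-amplified input plasmids and genomic integration junctions gave barcode abundances, and relative integration efficiency is their output/input fold change, normalised to reference barcodes and log-transformed.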

[2] = system: VchCAST RNA-guided transposition machinery (E. coli BL21(DE3) host, lacZ target); assay: relative integration efficiency (T-LR orientation) vs wild-type transposon end (log2 (normalized fold change)); transposon end mutated: right end (5 bp flank + 75 bp right end); higher = more efficient transposition
Summary of the method: as §1

Sequence	relative integration efficiency (log2) [1]	relative integration efficiency (log2) [2]
ACATTTGTTGATACAACCAGCAAATGATAATTACACCCATAAATTGATAATTATCACACCCATAAATTGATATTGCCTCTGATCATAGTCAGACCAACATTGCTACGACCCGTATTCGCACCGACAC	-2.72 ± 0.21	-3.07 ± 0.51
ACATTTGTTGATACAACCAGCCCATGATAATTACACCCATAAATTGATAATTATCACACCCATAAATTGATATTGCCTCTGATCATAGTCAGACCAACATTGCTACGACCCGTATTCGCACCGACAC	-4.196 ± 0.023	-3.69 ± 0.75
ACATTTGTTGATACAACCAGCCCCGTCGCCGGCACAAACGCCCGGTCGCCGGCGACACAAACGCCCGGTCGCGGTAAGAGGATCATAGTCAGACCAACATTGCTACGACCCGTATTCGCACCGACAC	-7.56 ± 1.3	-6.28 ± 0.75
ACATTTGTTGATACAACCAGCCCCTGATAATTACACCCAGCCCGTGATAATTATCACACCCAGCCCGTGATATTGCCTCTGATCATAGTCAGACCAACATTGCTACGACCCGTATTCGCACCGACAC	-6.71 ± 0.47	-4.67 ± 2
ACATTTGTTGATACAACCATAAAAACATAATTACACCCATAAATTGATAATTATCACACCCATAAATTGATATTGCCTCTGATCATAGTCAGACCAACATTGCTACGACCCGTATTCGCACCGACAC	-1.45 ± 0.33	-1.06 ± 0.19
ACATTTGTTGATACAACCATAAAAACTAAATTACACCCATAAATTGATAATTATCACACCCATAAATTGATATTGCCTCTGATCATAGTCAGACCAACATTGCTACGACCCGTATTCGCACCGACAC	-1.23 ± 0.062	-1.55 ± 0.34
ACATTTGTTGATACAACCATAAAAAGATAATTACACCCATAAATAGATAATTATCACACCCATAAATAGATATTGCCTCTGATCATAGTCAGACCAACATTGCTACGACCCGTATTCGCACCGACAC	-1.3 ± 0.18	-0.0292 ± 0.3
ACATTTGTTGATACAACCATAAAAAGATAATTACACCCATAAATTGATAATAATGACACCGAATTTAACTATAACGCTCTGATCATAGTCAGACCAACATTGCTACGACCCGTATTCGCACCGACAC	-1 ± 0.49	2.514 ± 0.018
ACATTTGTTGATACAACCATAAAAAGATAATTACACCCATAAATTGATAATGATGACACCGAATTTAACTATAACGCTCTGATCATAGTCAGACCAACATTGCTACGACCCGTATTCGCACCGACAC	-1.33 ± 0.2	2.23 ± 0.057
ACATTTGTTGATACAACCATAAAAAGATAATTACACCCATAAATTGATAATTGTGACACCGAATTTAACTATAACGCTCTGATCATAGTCAGACCAACATTGCTACGACCCGTATTCGCACCGACAC	-1.15 ± 0.29	2.38 ± 0.082
ACATTTGTTGATACAACCATAAAACGATAATTACACCCATAAATGGATAATTATCACACCCAATTTAACTATAACGCTCTGATCATAGTCAGACCAACATTGCTACGACCCGTATTCGCACCGACAC	-1.18 ± 0.21	1.52 ± 0.035
ACATTTGTTGATACAACCATAAAACGATAATTACACCCATAAATGGATCATTATCACACCCAATTTAACTATAACGCTCTGATCATAGTCAGACCAACATTGCTACGACCCGTATTCGCACCGACAC	-1.78 ± 0.29	1.06 ± 0.24
ACATTTGTTGATACAACCATAAAACGATAATTACACCCATAAATTCATAATTATCACACCCAATTTAACTATAACGCTCTGATCATAGTCAGACCAACATTGCTACGACCCGTATTCGCACCGACAC	-2.21 ± 0.42	1.3 ± 0.2
ACATTTGTTGATACAACCATAAAACGATAATTACACCCATAAATTCATCATTATCACACCCAATTTAACTATAACGCTCTGATCATAGTCAGACCAACATTGCTACGACCCGTATTCGCACCGACAC	-2.21 ± 0.32	1.29 ± 0.12
ACATTTGTTGATACAACCATAAAACGATAATTACACCCATAAATTGATCATTATCACACCCAATTTAACTATAACGCTCTGATCATAGTCAGACCAACATTGCTACGACCCGTATTCGCACCGACAC	-1.68 ± 0.16	1.86 ± 0.099
ACATTTGTTGATACAACCATAAAAGGATAATTACACCCATAAATGGATAATTATCACACCCATAAATGGATATTGCCTCTGATCATAGTCAGACCAACATTGCTACGACCCGTATTCGCACCGACAC	-1.1 ± 0.065	-0.23 ± 0.13
ACATTTGTTGATACAACCATAAAAGGATAATTACACCCATAAATTGATAATTATCACACCCCATTTAACTATAACGCTCTGATCATAGTCAGACCAACATTGCTACGACCCGTATTCGCACCGACAC	-1.31 ± 0.2	2.32 ± 0.013
ACATTTGTTGATACAACCATAAAAGGATAATTACACCCATAAATTGATAATTATCCCACCCAATTTAACTATAACGCTCTGATCATAGTCAGACCAACATTGCTACGACCCGTATTCGCACCGACAC	-0.818 ± 0.21	1.98 ± 0.22
